Key:
Assay in all cases: holdup assay
Design in all cases: key: below the threshold = too weak to quantify, mostly under pKd 3.1 to 4
[1] = biological target: T1, SHANK1, Q9Y566
T1 sequence (Q9Y566 658-767, limits assumed, looked up): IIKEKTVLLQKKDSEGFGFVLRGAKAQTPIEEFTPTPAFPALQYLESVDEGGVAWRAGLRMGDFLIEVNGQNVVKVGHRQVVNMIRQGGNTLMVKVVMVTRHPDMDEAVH

[2] = biological target: FRMPD3, Q5JV73
[3] = biological target: Inadl_5, Q8NI35
[4] = biological target: T2, MPDZ_12, O75970
T2 sequence (O75970 1857-1958, limits assumed, looked up): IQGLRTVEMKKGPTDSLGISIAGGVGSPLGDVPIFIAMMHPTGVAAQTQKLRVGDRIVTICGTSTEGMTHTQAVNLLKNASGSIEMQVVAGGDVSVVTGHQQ

[5] = biological target: IL16_4, Q14005
[6] = biological target: T3, GRIP1_3, Q9Y3R0
T3 sequence (Q9Y3R0 247-346, limits assumed, looked up): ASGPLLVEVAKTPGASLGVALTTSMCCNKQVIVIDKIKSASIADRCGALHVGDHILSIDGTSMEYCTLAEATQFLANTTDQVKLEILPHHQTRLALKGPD

[7] = biological target: NHERF4_4, Q86UT5
[8] = biological target: T4, PTPN13_1, Q12923
T4 sequence (Q12923 1088-1188, limits assumed, looked up): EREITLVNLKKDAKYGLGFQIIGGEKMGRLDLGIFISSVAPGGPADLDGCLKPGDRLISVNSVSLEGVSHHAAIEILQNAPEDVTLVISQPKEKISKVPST

[9] = biological target: T5, PDZRN3_1, Q9UPQ7
T5 sequence (Q9UPQ7 244-349, limits assumed, looked up): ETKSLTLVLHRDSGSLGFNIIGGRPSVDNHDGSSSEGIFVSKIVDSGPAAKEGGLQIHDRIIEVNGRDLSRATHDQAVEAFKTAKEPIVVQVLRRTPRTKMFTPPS

[10] = biological target: MAGI2_6, Q86UL8
[11] = biological target: LNX1_2, Q8TBB1
[12] = biological target: NHERF4_1, Q86UT5-2
[13] = biological target: T6, PCLO, Q9Y6V0
T6 sequence (Q9Y6V0 4491-4600, limits assumed, looked up): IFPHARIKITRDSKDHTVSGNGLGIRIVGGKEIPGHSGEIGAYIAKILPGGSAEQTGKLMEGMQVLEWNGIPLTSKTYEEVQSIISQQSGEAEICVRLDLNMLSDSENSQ

[14] = biological target: LNX1_3, Q8TBB1
[15] = biological target: FRMPD2_3, Q68DX3
[16] = biological target: T7, APBA1_1, Q02410
T7 sequence (Q02410 651-752, limits assumed, looked up): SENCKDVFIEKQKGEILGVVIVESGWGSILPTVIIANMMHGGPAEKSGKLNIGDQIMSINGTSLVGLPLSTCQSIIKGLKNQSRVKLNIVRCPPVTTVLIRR

[17] = biological target: NOS1, P29475
[18] = biological target: Inadl_1, Q8NI35
[19] = biological target: DLG2_2, Q15700
[20] = biological target: MAGI2_2, Q86UL8
[21] = biological target: T8, FRMPD1, Q5SYB0
T8 sequence (Q5SYB0 52-145, limits assumed, looked up): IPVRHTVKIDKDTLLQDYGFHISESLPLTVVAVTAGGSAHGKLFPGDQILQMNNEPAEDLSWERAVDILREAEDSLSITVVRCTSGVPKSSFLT

[22] = biological target: T9, DFNB31_2, Q9P202
T9 sequence (Q9P202 274-371, limits assumed, looked up): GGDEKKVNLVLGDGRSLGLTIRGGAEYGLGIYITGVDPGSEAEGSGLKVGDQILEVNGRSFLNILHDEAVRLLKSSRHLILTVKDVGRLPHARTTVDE

[23] = biological target: T10, PDZD2_2, O15018
T10 sequence (O15018 329-429, limits assumed, looked up): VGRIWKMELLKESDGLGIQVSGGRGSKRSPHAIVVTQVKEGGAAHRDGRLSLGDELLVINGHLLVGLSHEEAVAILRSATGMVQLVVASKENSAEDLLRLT

[24] = biological target: T11, DVL3, Q92997
T11 sequence (Q92997 244-331, limits assumed, looked up): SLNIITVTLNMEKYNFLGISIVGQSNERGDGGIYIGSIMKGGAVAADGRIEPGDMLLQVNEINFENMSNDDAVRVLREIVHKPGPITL

[25] = biological target: Inadl_3, Q8NI35
[26] = plain residues with an end cap or a label only (N-terminal biotin on a linker: ttds)
[27] = plain residues with an end cap or a label only (N-terminal biotin on a linker: gsgsgs; C-terminal amide)

Inadl_1, Q8NI35, sequence (Q8NI35 113-229): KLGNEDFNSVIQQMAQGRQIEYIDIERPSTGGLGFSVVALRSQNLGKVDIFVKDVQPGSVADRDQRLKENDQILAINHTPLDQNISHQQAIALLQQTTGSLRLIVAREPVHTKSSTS
NHERF4_1, Q86UT5-2, sequence (Q86UT5 other isoform, or with tags, fused parts or gaps): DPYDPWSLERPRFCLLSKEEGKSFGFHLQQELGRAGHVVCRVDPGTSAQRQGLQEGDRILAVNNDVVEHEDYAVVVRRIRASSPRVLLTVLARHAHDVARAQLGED
NOS1, P29475, sequence (P29475 9-101): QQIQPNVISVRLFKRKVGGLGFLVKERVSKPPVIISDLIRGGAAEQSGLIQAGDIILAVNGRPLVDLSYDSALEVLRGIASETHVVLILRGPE
Inadl_5, Q8NI35, sequence (Q8NI35 673-780): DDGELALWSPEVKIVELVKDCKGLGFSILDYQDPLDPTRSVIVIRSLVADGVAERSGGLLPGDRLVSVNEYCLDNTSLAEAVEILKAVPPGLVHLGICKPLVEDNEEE
FRMPD2_3, Q68DX3, sequence (Q68DX3 1073-1166): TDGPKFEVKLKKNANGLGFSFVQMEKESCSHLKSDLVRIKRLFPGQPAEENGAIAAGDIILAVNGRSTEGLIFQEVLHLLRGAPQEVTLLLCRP
LNX1_3, Q8TBB1, sequence (Q8TBB1 500-596): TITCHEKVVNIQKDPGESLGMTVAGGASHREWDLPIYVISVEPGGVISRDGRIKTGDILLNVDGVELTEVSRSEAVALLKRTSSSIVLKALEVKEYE
MAGI2_2, Q86UL8, sequence (Q86UL8 410-522): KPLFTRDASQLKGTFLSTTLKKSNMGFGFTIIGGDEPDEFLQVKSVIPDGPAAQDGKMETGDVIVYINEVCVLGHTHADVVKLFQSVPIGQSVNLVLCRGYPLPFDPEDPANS
DLG2_2, Q15700, sequence (Q15700 189-283): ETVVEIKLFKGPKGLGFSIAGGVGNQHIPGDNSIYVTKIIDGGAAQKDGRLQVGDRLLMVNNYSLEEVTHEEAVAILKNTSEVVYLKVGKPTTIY
NHERF4_4, Q86UT5, sequence (Q86UT5 464-550): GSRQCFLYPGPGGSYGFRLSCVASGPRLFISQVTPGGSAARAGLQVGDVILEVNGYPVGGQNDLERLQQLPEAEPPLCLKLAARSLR
FRMPD3, Q5JV73, sequence (Q5JV73 12-100): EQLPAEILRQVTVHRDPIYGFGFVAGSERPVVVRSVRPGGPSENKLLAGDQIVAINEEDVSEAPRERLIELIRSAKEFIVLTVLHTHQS
Inadl_3, Q8NI35, sequence (Q8NI35 359-469): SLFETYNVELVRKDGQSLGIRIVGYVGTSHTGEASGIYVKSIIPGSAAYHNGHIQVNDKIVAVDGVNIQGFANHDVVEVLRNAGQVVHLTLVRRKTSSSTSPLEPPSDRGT
MAGI2_6, Q86UL8, sequence (Q86UL8 1141-1229): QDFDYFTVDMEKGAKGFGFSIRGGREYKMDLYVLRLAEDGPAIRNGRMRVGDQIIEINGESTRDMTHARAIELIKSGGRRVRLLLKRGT
IL16_4, Q14005, sequence (Q14005 1229-1329): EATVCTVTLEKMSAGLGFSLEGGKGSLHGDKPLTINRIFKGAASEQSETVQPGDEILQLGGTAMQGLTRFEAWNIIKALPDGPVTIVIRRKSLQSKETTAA
LNX1_2, Q8TBB1, sequence (Q8TBB1 371-470): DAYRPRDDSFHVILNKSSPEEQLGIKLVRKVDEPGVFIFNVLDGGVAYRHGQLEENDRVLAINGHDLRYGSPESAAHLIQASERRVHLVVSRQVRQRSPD

## IYVPEAQTRL [DLGAP4, Q9Y2H0]
[1]; [26]
  pKd: 5.54
[2]; [26]
  pKd: below the threshold
[3]; [26]
  pKd: below the threshold
[4]; [26]
  pKd: below the threshold
[5]; [26]
  pKd: below the threshold
[6]; [26]
  pKd: below the threshold
[7]; [26]
  pKd: below the threshold
[8]; [26]
  pKd: below the threshold
[9]; [26]
  pKd: 3.94
[10]; [26]
  pKd: below the threshold
[11]; [26]
  pKd: below the threshold
[12]; [26]
  pKd: 3.65
[13]; [26]
  pKd: below the threshold
[14]; [26]
  pKd: below the threshold
[15]; [26]
  pKd: below the threshold
[16]; [26]
  pKd: below the threshold
[17]; [26]
  pKd: 3.76
[18]; [26]
  pKd: below the threshold
[19]; [26]
  pKd: below the threshold
[20]; [26]
  pKd: below the threshold
[21]; [26]
  pKd: below the threshold
[22]; [26]
  pKd: below the threshold
[23]; [26]
  pKd: below the threshold
[24]; [26]
  pKd: below the threshold
[25]; [26]
  pKd: below the threshold

## SSRTRRETQL [HPV16-E6, P03126]
[1]; [26]
  pKd: 3.68
[2]; [26]
  pKd: below the threshold
[3]; [26]
  pKd: below the threshold
[4]; [26]
  pKd: below the threshold
[5]; [26]
  pKd: below the threshold
[6]; [26]
  pKd: below the threshold
[7]; [26]
  pKd: 3.61
[8]; [26]
  pKd: 3.56
[9]; [26]
  pKd: 5.66
[10]; [26]
  pKd: 3.61
[11]; [26]
  pKd: 3.47
[12]; [26]
  pKd: 4.25
[13]; [26]
  pKd: below the threshold
[14]; [26]
  pKd: 3.51
[15]; [26]
  pKd: below the threshold
[16]; [26]
  pKd: below the threshold
[17]; [26]
  pKd: 4.08
[18]; [26]
  pKd: below the threshold
[19]; [26]
  pKd: 4.93
[20]; [26]
  pKd: 4.87
[21]; [26]
  pKd: below the threshold
[22]; [26]
  pKd: below the threshold
[23]; [26]
  pKd: below the threshold
[24]; [26]
  pKd: below the threshold
[25]; [26]
  pKd: below the threshold

## TLSLTDSSVDGIPPYR [AXIN1_int, O15169]
[1]; [27]
  pKd: below the threshold
[2]; [27]
  pKd: below the threshold
[3]; [27]
  pKd: below the threshold
[4]; [27]
  pKd: 3.55
[5]; [27]
  pKd: below the threshold
[6]; [27]
  pKd: below the threshold
[7]; [27]
  pKd: below the threshold
[8]; [27]
  pKd: 3.5
[9]; [27]
  pKd: below the threshold
[10]; [27]
  pKd: below the threshold
[11]; [27]
  pKd: below the threshold
[12]; [27]
  pKd: below the threshold
[13]; [27]
  pKd: below the threshold
[14]; [27]
  pKd: below the threshold
[15]; [27]
  pKd: below the threshold
[16]; [27]
  pKd: below the threshold
[17]; [27]
  pKd: below the threshold
[18]; [27]
  pKd: below the threshold
[19]; [27]
  pKd: below the threshold
[20]; [27]
  pKd: below the threshold
[21]; [27]
  pKd: below the threshold
[22]; [27]
  pKd: below the threshold
[23]; [27]
  pKd: below the threshold
[24]; [27]
  pKd: below the threshold
[25]; [27]
  pKd: below the threshold

## PKTPPTDTSV [KIR3DL3, Q8N743]
[1]; [26]
  pKd: below the threshold
[2]; [26]
  pKd: below the threshold
[3]; [26]
  pKd: below the threshold
[4]; [26]
  pKd: below the threshold
[5]; [26]
  pKd: below the threshold
[6]; [26]
  pKd: below the threshold
[7]; [26]
  pKd: below the threshold
[8]; [26]
  pKd: below the threshold
[9]; [26]
  pKd: below the threshold
[10]; [26]
  pKd: 3.97
[11]; [26]
  pKd: below the threshold
[12]; [26]
  pKd: below the threshold
[13]; [26]
  pKd: below the threshold
[14]; [26]
  pKd: below the threshold
[15]; [26]
  pKd: below the threshold
[16]; [26]
  pKd: below the threshold
[17]; [26]
  pKd: below the threshold
[18]; [26]
  pKd: 3.57
[19]; [26]
  pKd: below the threshold
[20]; [26]
  pKd: below the threshold
[21]; [26]
  pKd: below the threshold
[22]; [26]
  pKd: below the threshold
[23]; [26]
  pKd: 4
[24]; [26]
  pKd: below the threshold
[25]; [26]
  pKd: below the threshold

## TVASEKESVM [SLC1A5, Q15758]
[1]; [26]
  pKd: below the threshold
[2]; [26]
  pKd: below the threshold
[3]; [26]
  pKd: below the threshold
[4]; [26]
  pKd: below the threshold
[5]; [26]
  pKd: below the threshold
[6]; [26]
  pKd: below the threshold
[7]; [26]
  pKd: below the threshold
[8]; [26]
  pKd: below the threshold
[9]; [26]
  pKd: 3.61
[10]; [26]
  pKd: below the threshold
[11]; [26]
  pKd: below the threshold
[12]; [26]
  pKd: below the threshold
[13]; [26]
  pKd: below the threshold
[14]; [26]
  pKd: below the threshold
[15]; [26]
  pKd: below the threshold
[16]; [26]
  pKd: below the threshold
[17]; [26]
  pKd: below the threshold
[18]; [26]
  pKd: 3.64
[19]; [26]
  pKd: below the threshold
[20]; [26]
  pKd: below the threshold
[21]; [26]
  pKd: below the threshold
[22]; [26]
  pKd: below the threshold
[23]; [26]
  pKd: below the threshold
[24]; [26]
  pKd: below the threshold
[25]; [26]
  pKd: below the threshold
